The values below come from paper PMC3101248.

For the assay, the target named is mouse VPS29 (isotopically labelled NMR sample) (mouse). The assay can be described thus: NMR titration; SNX1 titrated into 0.1 mM 15N-labelled VPS29, soFast 15N HMQC, 298 K, 600 MHz; 10 mM HEPES (pH 7.5), 100 mM NaCl, DTT.

“human SNX1 (recombinant, for NMR titrations) (from UniProt Q13596 1-522) (natural protein)”: the Kd is over 150 µM.
